The source of these data is paper PMC10094494.

The assay addresses D-psicose 3-epimerase from Iocasia fonsfrigidae strain SP3-1 (Iocasia fonsfrigidae strain SP3-1). In words: native gel or EMSA; native-PAGE of the purified recombinant enzyme, run like SDS-PAGE but without SDS, beta-mercaptoethanol and heat.

What is called stoichiometry N is a count of units in the complex or per binding partner. Consider “D-psicose 3-epimerase from Iocasia fonsfrigidae strain SP3-1 (enzyme)”, for which the stoichiometry N turned out to be 2.
